Assay results taken from patent publication US20240366776A1 (Hoffmann-La Roche, published 2024).

T1: biotinylated IL-2 receptor beta gamma heterodimer Fc (IL-2RBG; Acro ILG-H5254) (UniProt P14784 27-239; P31785 23-262, biotinylated)
T1 construct: bought heterodimer
T1 sequence (looked up) 1: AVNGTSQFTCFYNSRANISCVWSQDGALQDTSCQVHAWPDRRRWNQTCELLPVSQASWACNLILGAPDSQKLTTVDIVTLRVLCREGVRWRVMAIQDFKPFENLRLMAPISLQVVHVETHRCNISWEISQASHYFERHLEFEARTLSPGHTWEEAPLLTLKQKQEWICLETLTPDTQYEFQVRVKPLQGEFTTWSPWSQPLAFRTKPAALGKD
T1 sequence (looked up) 2: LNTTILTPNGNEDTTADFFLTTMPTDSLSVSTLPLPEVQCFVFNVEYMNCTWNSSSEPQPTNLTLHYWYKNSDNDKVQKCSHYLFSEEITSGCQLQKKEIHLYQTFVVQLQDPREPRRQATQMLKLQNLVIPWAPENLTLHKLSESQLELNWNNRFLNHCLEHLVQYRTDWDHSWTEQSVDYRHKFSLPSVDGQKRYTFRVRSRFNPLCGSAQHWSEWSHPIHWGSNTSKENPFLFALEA


Target: T1, biotinylated IL-2 receptor beta gamma …
Experiment: ELISA, captured complex, biotin-IL-2RBG 10 nM, PD-1 Fc titrated
Protocol: The DBA-cytokine complexes and control antibody-cytokine complexes were produced in two formats: (1) “Symmetric” immunocytokine (shown in FIG. 2E); or (2) “Asymmetric” immunocytokine (shown in FIG. 2B) by expression in mammalian cells and purified using standard protocols. […] To perform the assay, 384-well ELISA plates were coated with anti-Fc antibody at 1 micrograms/ml in 100 mM bicarbonate solution pH 9.0 overnight at 4° C. and washed twice with SUPERBLOCK™. Antibody-cytokine complexes were then added to each well at a constant concentration of 6 nM and allowed to incubate for 1 hour and washed three times in PBS plus 0.05% TWEEN® 20 (PBST). Titrated concentrations of PD-1 Fc or an IgG1 control Fc were added and allowed to incubate for 15 minutes before the addition of a constant amount of biotinylated IL-2RBG at 10 nM. The plates were incubated for an additional 30 minutes, washed and biotinylated IL-2RBG detection was performed using streptavidin-HRP and standard ELISA protocols.

Row | Binder | binding result
1 | AF003657 (other, also called AF3657) heavy: APASSSTKKTQLQLEHLLLDLQMILNGINNYKNPKLTRMLTAKFAMPKKATELKHLQCLEEELKPLEEVLNGAQSKNFHLRPRDLISNINVIVLELKGSETTFMCEYADETATIVEFLNRWITFAQSIISTLTGGGGSGGGGSGGGGSGGGGSQVQLVQSGAEVKKPGASVKVSCKASGDTFTRYYVHWVRQAPGQGLEWMGIINPSGGYASYAQKFQGRVTMTRDTSTSTVYMELSSLRSEDTAVYYCAAGLFIWGQGTLVTVSSAKTTAPSVYPLAPVCGDTTGSSVTLGCLVKGYFPEPVTLTWNSGSLSSGVHTFPAVLQSDLYTLSSSVTVTSSTWPSQSITCNVAHPASSTKVDKKIEPRGPTIKPCPPCKCPAPNAAGGPSVFIFPPKIKDVLMISLSPIVTCVVVDVSEDDPDVQISWFVNNVEVHTAQTQTHREDYNSTLRVVSALPIQHQDWMSGKEFKCKVNNKDLGAPIERTISKPKGSVRAPQVYVLPPPEEEMTKKQVTLTCMVTDFMPEDIYVEWTNNGKTELNYKNTEPVLDSDGSYFMYSKLRVEKKNWVERNSYSCSVVHEGLHNHHTTKSFSRTPGK light: DIQMTQSPSSLSASVGDRVTITCRASQSIGRWLAWYQQKPGKAPKLLIYSASNLETGVPSRFSGSGSGTDFTLTISSLQPEDFATYYCQQYESFPVTFGPGTKVDIKRADAAPTVSIFPPSSEQLTSGGASVVCFLNNFYPKDINVKWKIDGSERQNGVLNSWTDQDSKDSTYSMSSTLTLTKDEYERHNSYTCEATHKTSTSPIVKSFNRNEC | binds
2 | AF003934 (other, also called AF3934) heavy: APASSSTKKTQLQLEHLLLDLQMILNGINNYKNPKLTRMLTAKFAMPKKATELKHLQCLEEELKPLEEVLNGAQSKNFHLRPRDLISNINVIVLELKGSETTFMCEYADETATIVEFLNRWITFAQSIISTLTGGGGSGGGGSGGGGSGGGGSQVQLVQSGAEVKKPGASVKVSCKASGYTFTRYYMHWVRQAPGQGLEWMGIINPRAGYTSYALKFQGRVTMTRDTSTSTVYMELSSLRSEDTAVYYCTSGWDVWGQGTLVTVSSAKTTAPSVYPLAPVCGDTTGSSVTLGCLVKGYFPEPVTLTWNSGSLSSGVHTFPAVLQSDLYTLSSSVTVTSSTWPSQSITCNVAHPASSTKVDKKIEPRGPTIKPCPPCKCPAPNAAGGPSVFIFPPKIKDVLMISLSPIVTCVVVDVSEDDPDVQISWFVNNVEVHTAQTQTHREDYNSTLRVVSALPIQHQDWMSGKEFKCKVNNKDLGAPIERTISKPKGSVRAPQVYVLPPPEEEMTKKQVTLTCMVTDFMPEDIYVEWTNNGKTELNYKNTEPVLDSDGSYFMYSKLRVEKKNWVERNSYSCSVVHEGLHNHHTTKSFSRTPGK light: DIQMTQSPSSLSASVGDRVTITCRASQSISTWLAWYQQKPGKAPKLLIYAASSLDSGVPSRFSGSGSGTDFTLTISSLQPEDFATYYCQQSYSFPVTFGQGTKVEIKRADAAPTVSIFPPSSEQLTSGGASVVCFLNNFYPKDINVKWKIDGSERQNGVLNSWTDQDSKDSTYSMSSTLTLTKDEYERHNSYTCEATHKTSTSPIVKSFNRNEC | binds
3 | AF003947 (other, also called AF3947) heavy 1: APASSSTKKTQLQLEHLLLDLQMILNGINNYKNPKLTRMLTAKFAMPKKATELKHLQCLEEELKPLEEVLNGAQSKNFHLRPRDLISNINVIVLELKGSETTFMCEYADETATIVEFLNRWITFAQSIISTLTGGGGSGGGGSGGGGSGGGGSQVQLVQSGAEVKKPGASVKVSCKASGDTFTRYYVHWVRQAPGQGLEWMGIINPSGGYASYAQKFQGRVTMTRDTSTSTVYMELSSLRSEDTAVYYCAAGLFIWGQGTLVTVSSAKTTAPSVYPLAPVCGDTTGSSVTLGCLVKGYFPEPVTLTWNSGSLSSGVHTFPAVLQSDLYTLSSSVTVTSSTWPSQSITCNVAHPASSTKVDKKIEPRGPTIKPCPPCKCPAPNAAGGPSVFIFPPKIKDVLMISLSPIVTCVVVDVSEDDPDVQISWFVNNVEVHTAQTQTHREDYNSTLRVVSALPIQHQDWMSGKEFKCKVNNKDLGAPIERTISKPKGSVRAPQVYVLPPPEEEMTKKQVTLTCMVTDFMPEDIYVEWTNNGKTELNYKNTEPVLDSDGSYFMYSDLRVEKKNWVERNSYSCSVVHEGLHNHHTTESFSRTPGK heavy 2: QVQLVQSGAEVKKPGASVKVSCKASGDTFTRYYVHWVRQAPGQGLEWMGIINPSGGYASYAQKFQGRVTMTRDTSTSTVYMELSSLRSEDTAVYYCAAGLFIWGQGTLVTVSSAKTTAPSVYPLAPVCGDTTGSSVTLGCLVKGYFPEPVTLTWNSGSLSSGVHTFPAVLQSDLYTLSSSVTVTSSTWPSQSITCNVAHPASSTKVDKKIEPRGPTIKPCPPCKCPAPNAAGGPSVFIFPPKIKDVLMISLSPIVTCVVVDVSEDDPDVQISWFVNNVEVHTAQTQTHREDYNSTLRVVSALPIQHQDWMSGKEFKCKVNNKDLGAPIERTISKPKGSVRAPQVYVLPPPEKEMTKKQVSLTCLVKDFMPEDIYVEWTNNGKTELNYKNTEPVLKSDGSYFMYSKLTVEKKNWVERNSYSCSVVHEGLHNHHTTKSFSRTPGGGGSGGGSHHHHHH light: DIQMTQSPSSLSASVGDRVTITCRASQSIGRWLAWYQQKPGKAPKLLIYSASNLETGVPSRFSGSGSGTDFTLTISSLQPEDFATYYCQQYERFPVTFGPGTKVDIKRADAAPTVSIFPPSSEQLTSGGASVVCFLNNFYPKDINVKWKIDGSERQNGVLNSWTDQDSKDSTYSMSSTLTLTKDEYERHNSYTCEATHKTSTSPIVKSFNRNEC | binds

Further lines, results first:

Row | binding result | Binder
4 | binds | AF003247 (other, also called AF3247) heavy: APASSSTKKTQLQLEHLLLDLQMILNGINNYKNPKLTRMLTAKFAMPKKATELKHLQCLEEELKPLEEVLNGAQSKNFHLRPRDLISNINVIVLELKGSETTFMCEYADETATIVEFLNRWITFAQSIISTLTGGGGSGGGGSGGGGSGGGGSQVQLVQSGAEVKKPGASVKVSCKASGDTFTRHYVHWVRQAPGQGLEWMGIINPSGGYASYAQKFQGRVTMTRDTSTSTVYMELSSLRSEDTAVYYCAAGLFIWGQGTLVTVSSAKTTAPSVYPLAPVCGDTTGSSVTLGCLVKGYFPEPVTLTWNSGSLSSGVHTFPAVLQSDLYTLSSSVTVTSSTWPSQSITCNVAHPASSTKVDKKIEPRGPTIKPCPPCKCPAPNAAGGPSVFIFPPKIKDVLMISLSPIVTCVVVDVSEDDPDVQISWFVNNVEVHTAQTQTHREDYNSTLRVVSALPIQHQDWMSGKEFKCKVNNKDLGAPIERTISKPKGSVRAPQVYVLPPPEEEMTKKQVTLTCMVTDFMPEDIYVEWTNNGKTELNYKNTEPVLDSDGSYFMYSKLRVEKKNWVERNSYSCSVVHEGLHNHHTTKSFSRTPGK light: DIQMTQSPSSLSASVGDRVTITCRASQSIGRWLAWYQQKPGKAPKLLIYSASNLETGVPSRFSGSGSGTDFTLTISSLQPEDFATYYCQQYESFPVTFGPGTKVDIKRADAAPTVSIFPPSSEQLTSGGASVVCFLNNFYPKDINVKWKIDGSERQNGVLNSWTDQDSKDSTYSMSSTLTLTKDEYERHNSYTCEATHKTSTSPIVKSFNRNEC
5 | binds | AF003644 (other, also called AF3644) heavy: APASSSTKKTQLQLEHLLLDLQMILNGINNYKNPKLTRMLTAKFAMPKKATELKHLQCLEEELKPLEEVLNGAQSKNFHLRPRDLISNINVIVLELKGSETTFMCEYADETATIVEFLNRWITFAQSIISTLTGGGGSGGGGSGGGGSGGGGSQVQLVQSGAEVKKPGASVKVSCKASGDTFTRYYVHWVRQAPGQGLEWMGIINPSGGYASYAQKFQGRVTMTRDTSTSTVYMELSSLRSEDTAVYYCAAGLFIWGQGTLVTVSSAKTTAPSVYPLAPVCGDTTGSSVTLGCLVKGYFPEPVTLTWNSGSLSSGVHTFPAVLQSDLYTLSSSVTVTSSTWPSQSITCNVAHPASSTKVDKKIEPRGPTIKPCPPCKCPAPNAAGGPSVFIFPPKIKDVLMISLSPIVTCVVVDVSEDDPDVQISWFVNNVEVHTAQTQTHREDYNSTLRVVSALPIQHQDWMSGKEFKCKVNNKDLGAPIERTISKPKGSVRAPQVYVLPPPEEEMTKKQVTLTCMVTDFMPEDIYVEWTNNGKTELNYKNTEPVLDSDGSYFMYSKLRVEKKNWVERNSYSCSVVHEGLHNHHTTKSFSRTPGK light: DIQMTQSPSSLSASVGDRVTITCRASQSIGRWLAWYQQKPGKAPKLLIYSASNLETGVPSRFSGSGSGTDFTLTISSLQPEDFATYYCQQYNSFPVTFGPGTKVDIKRADAAPTVSIFPPSSEQLTSGGASVVCFLNNFYPKDINVKWKIDGSERQNGVLNSWTDQDSKDSTYSMSSTLTLTKDEYERHNSYTCEATHKTSTSPIVKSFNRNEC
6 | binds | AF003651 (other, also called AF3651) heavy: APASSSTKKTQLQLEHLLLDLQMILNGINNYKNPKLTRMLTAKFAMPKKATELKHLQCLEEELKPLEEVLNGAQSKNFHLRPRDLISNINVIVLELKGSETTFMCEYADETATIVEFLNRWITFAQSIISTLTGGGGSGGGGSGGGGSGGGGSQVQLVQSGAEVKKPGASVKVSCKASGDTFTRYYVHWVRQAPGQGLEWMGIINPSGGYASYAQKFQGRVTMTRDTSTSTVYMELSSLRSEDTAVYYCAAGLFIWGQGTLVTVSSAKTTAPSVYPLAPVCGDTTGSSVTLGCLVKGYFPEPVTLTWNSGSLSSGVHTFPAVLQSDLYTLSSSVTVTSSTWPSQSITCNVAHPASSTKVDKKIEPRGPTIKPCPPCKCPAPNAAGGPSVFIFPPKIKDVLMISLSPIVTCVVVDVSEDDPDVQISWFVNNVEVHTAQTQTHREDYNSTLRVVSALPIQHQDWMSGKEFKCKVNNKDLGAPIERTISKPKGSVRAPQVYVLPPPEEEMTKKQVTLTCMVTDFMPEDIYVEWTNNGKTELNYKNTEPVLDSDGSYFMYSKLRVEKKNWVERNSYSCSVVHEGLHNHHTTKSFSRTPGK light: DIQMTQSPSSLSASVGDRVTITCRASQSIGRYLAWYQQKPGKAPKLLIYSASNLETGVPSRFSGSGSGTDFTLTISSLQPEDFATYYCQQYNSFPVTFGPGTKVDIKRADAAPTVSIFPPSSEQLTSGGASVVCFLNNFYPKDINVKWKIDGSERQNGVLNSWTDQDSKDSTYSMSSTLTLTKDEYERHNSYTCEATHKTSTSPIVKSFNRNEC
